Data on one molecule can be found in patent US20120039897A1.

For the test, the target named is Aβ(1-40) peptide. The test is described as follows: cell-based or functional assay.
Chain of Aβ(1-40) peptide (peptide, as listed by the source): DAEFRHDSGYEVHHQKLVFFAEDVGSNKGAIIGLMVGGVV

B1: ACA (control antibody; humanized 266 antibody, U.S. Pat. No. 7,195,761 B2) (antibody, INN chains, looked up, V domains shown)
VH: EVQLVESGGGLVQPGGSLRLSCAASGFTFSRYSMSWVRQAPGKGLELVAQINSVGNSTYYPDTVKGRFTISRDNAKNTLYLQMNSLRAEDTAVYYCASGDYWGQGTLVTVSS
VL: DVVMTQSPLSLPVTLGQPASISCRSSQSLIYSDGNAYLHWFLQKPGQSPRLLIYKVSNRFSGVPDRFSGSGSGTDFTLKISRVEAEDVGVYYCSQSTHVPWTFGQGTKVEIK
B1 returned an inhibition of Aβ fibril formation (THT fluorescence), antibody 1.3 µM of 20%.
